Measured values published in patent publication EP4534554A1 (Corregene Biotechnology Co., Ltd., dated 2025).

T1: MAGE-A1 peptide on HLA-A*02:01 (human)
T1 peptide: KVLEYVIKV


Assays:
[1] = target: T1, MAGE-A1 peptide on HLA-A*02:01; test: JKR9 reporter + peptide-loaded T2, 16 h; full-length, on cells
[2] = target: MAGE-A1 target antigen peptide … presented by HLA-A*02:01 on cells (human); test: cell-based or functional assay; set-up: EC50 Enhancement Factor: unit not given beside the values

Binder	EC50 of peptide [1] [nM]	EC50 Enhancement Factor [2]	EC50 Value (M), JKR9 reporter activation by peptide-loaded T2 cells [2] [M]
ht27M1285 (TCR, V domains shown) Valpha: GEDVEQSLFLSVREGDSSVINCTYTDSSSTYLYWYKQEPGAGLQLLTYIFSFMDMKQDQRLTVLLNKKDKHLSLRIADTQTGDSAIYFCAGSGGGTDKLIFGTGTRLQVFP Vbeta: GAVVSQHPSWVICKSGTSVKIECRSLDFQATTMFWYRQFPKQSLMLMATSNEGSKATYEQGVEKDKFLINHASLTLSTLTVTSAHPEDSSFYICSAREPGQGPYEQYFGPGTRLTVT	59.3	281	5.93e-08
ht27M1290 (TCR, V domains shown) Valpha: GEDVEQSLFLSVREGDSSVINCTYTDSSSTYLYWYKQEPGAGLQLLTYIFSNMDMKQDQRLTVLLNKKDKHLSLRIADTQTGDSAIYFCAGSGGGTDKLIFGTGTRLQVFP Vbeta: GAVVSQHPSWVICKSGTSVKIECRSLDFQATTMFWYRQFPKQSLMLMATSNEGSKATYEQGVEKDKFLINHASLTLSTLTVTSAHPEDSSFYICSARVNDGTYEQYFGPGTRLTVT	32.4	711	3.24e-08
ht27M1369 (TCR, V domains shown) Valpha: GEDVEQSLFLSVREGDSSVINCTYTDSSSTYLYWYKQEPGAGLQLLTYIFAFESMKQDQRLTVLLNKKDKHLSLRIADTQTGDSAIYFCAGSGGGTDKLIFGTGTRLQVFP Vbeta: GAVVSQHPSWVICKSGTSVKIECRSLDFQATTMFWYRQFPKQSLMLMATSNEGSKATYEQGVEKDKFLINHASLTLSTLTVTSAHPEDSSFYICSAREPGQGPYEQYFGPGTRLTVT	76.6	218	7.66e-08
ht27M1002 (TCR, V domains shown) Valpha: GEDVEQSLFLSVREGDSSVINCTYTDSSSTYLYWYKQEPGAGLQLLTYIFSNMDMKQDQRLTVLLNKKDKHLSLRIADTQTGDSAIYFCAGSGGGTDKLIFGTGTRLQVFP Vbeta: GAVVSQHPSWVICKSGTSVKIECRSLDFQATTMFWYRQFPKQSLMLMATSNEGSKATYEQGVEKDKFLINHASLTLSTLTVTSAHPEDSSFYICSAREPGGGPYEQYFGPGTRLTVT	1360	12	1.36e-06
ht27M1378 (TCR, V domains shown) Valpha: GEDVEQSLFLSVREGDSSVINCTYADYLSTYLYWYKQEPGAGLQLLTYIFSNMDMKQDQRLTVLLNKKDKHLSLRIADTQTGDSAIYFCAGSGGGTDKLIFGTGTRLQVFP Vbeta: GAVVSQHPSWVICKSGTSVKIECRSLDFQATTMFWYRQFPKQSLMLMATSNEGSKATYEQGVEKDKFLINHASLTLSTLTVTSAHPEDSSFYICSAREPGQGPYEQYFGPGTRLTVT	74	225	7.4e-08
ht27M1414 (TCR, V domains shown) Valpha: GEDVEQSLFLSVREGDSSVINCTYTDSSSTYLYWYKQEPGAGLQLLTYTWPHMDMKQDQRLTVLLNKKDKHLSLRIADTQTGDSAIYFCAGSGGGTDKLIFGTGTRLQVFP Vbeta: GAVVSQHPSWVICKSGTSVKIECRSLDFQATTMFWYRQFPKQSLMLMATSNEGSKATYEQGVEKDKFLINHASLTLSTLTVTSAHPEDSSFYICSAREPGQGPYEQYFGPGTRLTVT	22.5	739	2.25e-08
ht27M1457 (TCR, V domains shown) Valpha: GEDVEQSLFLSVREGDSSVINCTYTDSSSTYLYWYKQEPGAGLQLLTYIFSNMDMKQDQRLTVLLNKKDKHLSLRIADTQTGDSAIYFCAGSGGGTDKLIFGTGTRLQVFP Vbeta: GAVVSQHPSWVICKSGTSVKIECRSLDFQATTMFWYRQFPKQSLMLMATTDYGSKATYEQGVEKDKFLINHASLTLSTLTVTSAHPEDSSFYICSAREPGQGPYEQYFGPGTRLTVT	47.3	352	4.73e-08
